Source: the DeepSol protein solubility set

Assay: soluble on expression in E. coli; label from the status in PepcDB or PDB records

Sequence | soluble on expression in E. coli
MAHHHHHHMSVFAAARQRAAHYANRNPLFAKLNKTHLEYFNCVLREQCPKNKKPGRMLTDPNKIVSFNRDWMNQVEGECPVVLLPTSTQQVAAILRYCQSEKIGIVPQCGNTGLVYGSSALHDEVILSLREMNGDPVVSPQTMSTEAEAGVILQQLQEAAKTHDLLVPITMGSKGSAQIGGAVSTNAGGIHFARYGSMHANVLGLEVVTAQGEVLDMMSTLRKDNAGYDMKHLFIGSEGTLGVVTRVSLKLYPFPRSTQLALFRLTTFESVLELYRLAQEHLSECLSAFEVVDGESLSVTPQEELPFTRTSKSDTFRAGQDFTSAYFCVMVETNGSNAEHDMEKLSRFVEAAECNPRCVSKGDLGESFEPVLSQSLAQTAQLWNLREDTPVRLASAGTIYIFDVSFPLDKFYDIVLHFRKMIYKNGGFDPDEVLVVGYGHFGDGNIHLNVVDRTRKHSDALDAVLFPAVYEFCAAHSGSISAEHGVGVQKKAYLGFSRKPEVIALMRTLKRTMDPNGILNPYKVID | soluble
MILNNESNKKKKFEQFFIMTYPKVKAFAWKLLKSEEDAEDIAQDIFAKLWTNPEIWENQETWNSYIYTMVRNHIYNFLKHKSIRQTYQEQCTKEEPAISETDIHDQLYAKESELLIKLTIANMPEQRRKIFRMSRTQEKSNQEIADELNISIRTVERHIYLALIDLKKVLLTLFFFYLG | not soluble
MVKVYAPASSANMSVGFDVLGAAVTPVDGALLGDVVTVEAAETFSLNNLGRFADKLPSEPRENIVYQCWERFCQELGKQIPVAMTLEKNMPIGSGLGSSACSVVAALMAMNEHCGKPLNDTRLLALMGELEGRISGSIHYDNVAPCFLGGMQLMIEENDIISQQVPGFDEWLWVLAYPGIKVSTAEARAILPAQYRRQDCIAHGRHLAGFIHACYSRQPELAAKLMKDVIAEPYRERLLPGFRQARQAVAEIGAVASGISGSGPTLFALCDKPETAQRVADWLGKNYLQNQEGFVHICRLDTAGARVLEN | soluble
MGSDKIHHHHHHMTQDFSEIFAKYEALVADVDNVFKRVQEAHPECVTCEKGCSDCCYAVFDLSLVEAMYLNHRFGQKFSFGPERSVIVERADETDRKLVKLKRQAHRDVQNGRDAEEILQDMGRVRVRCPLLGETDGCELYEYRPITCRLYGIPTAIGGKAHSCGKSAFLAGKQYPTVNIDRIHERLAQLSLEIRDAVHSRFSELHTVLVPVSMALLTTYDDAYLGAGATAKGNE | not soluble
GSHMRKTLVLLGAHGVGRRHIKNTLITKHPDRFAYPIPHTTRPPKKDEENGKNYYFVSHDQMMQDISNNEYLEYGSHEDAMYGTKLETIRKIHEQGLIAILDVEPQALKVLRTAEFAPFVVFIAAPTITPGLNEDESLQRLQKESDILQRTYAHYFDLTIINNEIDETIRHLEEAVELVC | soluble
AVMHYTSDTEFCVSCHSMEIPYKEYQGSVHFSNAKGIRAECSDCHIPQEPMDYLITKIRASKDIYHEFVTGKIDTPEKYEAHRKDMAETVWAQFRENDSATCRSCHDFDAMEEFEQSRDAAKMHEYAKANDQTCIDCHKGVAHFAPEAELDSKAFETLMSFTTKTAANAKVVYPVTTINMGEMGTINPTTKLEVMSAEGDNRTVKLNAFQMKGAEQVLYMGEGQRAIVATLTEQGQQALEAGEFEADVYGNEWRAVSLTGAIDSPVVDTLDPVWSYAEELDNVYCATCHAKIPSNHFTV | not soluble
MGSDKIHHHHHHMTQTPKPPLTIYLAAPRGFCAGVDRAIKIVEMALEKWGAPVFVRHEIVHNKYVVDDLKAKGAVFVEELSDCPDDRPVIFSAHGVPKSVPQAAAARQMVYVDATCPLVSKVHIEAQRHSDNGLQMVMIGHKGHPETIGTMGQLPDGEVLLVETVEDVATVEVRDPSRLAFVTQTTLSVDDTIEIVEALTTRFPAIVGPHKEDICYATTNRQEAVKAMAPKAEAMLVVGAPNSSNSKRLVEVGSRAGCAYSQLVQRAADIDWRALGDIKTLGITAGASAPEVLIEEVIQAFEDRFDVTRELVETAVENVEFKVPRVLRETA | not soluble
MSIPITVKTVADLIIGEKGIICGFTDEETSLKLLEMGCLPGCEIELDRKAPLGDPICINVCGYTLSMRLEEASTILLSLEHHHHHH | not soluble
MSLTDAILYELHIRDATIHPGSGVSKKGTYKGLMEEGTTGRNGTLTGLSHIKDLGVTHVELLPLYCFGGVDEANPSSAYNWGYNPLYYNAPTGYYATNPSDPYNRIVECKQLIETFHEHGIRVIIDVVYNHVYERELSSFEKLVPGYYFRHGENGMPSNGTGVGNDIASERKMMRKFIVESILYWLTEYNVDGFRFDLMGILDVDTINIIEKEVRNIKRDALLLGEGWDLQTPLPLEEKATLNNAKKMPHIAQFNDQFRDGIKGSTFHINKRGFAFGGYVDCNHLQYIASGSLLSMKETGLFLEPVQSINYVECHDNMTMWDKLMRSNEESEEILKKRHLLATAMVILSQGIPFLHAGQEFYRTKQGNENSYNANDEINQLDWDRKEKEIETVNYIKGLIAIRKEHGAFRLQNADLIKKHMTFLQTSPEVLAYHLEHVESFGPWKEIVVLFNSSLEAKTVQLPKEETWHVLVNEKQAKIEPISSFRGKELRLAPISTYILTIMEGHHHHHH | not soluble
MSLKLIASDMDGTLLDAKMSITNDNASAIREAERLGIEFMVATGRAYTEAKPALEEAGIDCAMITLNGAQVFDKDGHSLFTAGIEKETVTEVLTILSQHNVYYEISTNKGIFSEHQEKRIENFAAHIAESMPHLTYKVAIAMASAHLSLLHITYVDRLDDILKDDSIEVLKIIGFSMDGPKVLGPAGMEVEELDDLVVTSSALNNIEINHRLAQKGIAVARVAKERGIPAEQVMTIGDNLNDVSMIQWAGVSFAMGNAELELKEYAKYETATNLENGVGEAILRAIREDEGHHHHHH | soluble
GSPPWRGRREQCLLPPEDSRLWQYLLSRSMREHPALRSLRLLTLEQPQGDSMMTCEQAQLLANLARLIQAKKALDLGTFTGYSALALALALPADGRVVTCEVDAQPPELGRPLWRQAEAEHKIDLRLKPALETLDELLAAGEAGTFDVAVVDADKENCSAYYERCLQLLRPGGILAVLRVLWRGKVLQPPKGDVAAECVRNLNERIRRDVRVYISLLPLGDGLTLAFKI | soluble
MSYNNLLAIEKPVRYTGDEIGSRPKEDAELRFVLAFPDVYEVGMSHLGLQILYDILNREEGIAAERAYTPWPDREAQLRSLGESLATLESQTSLARADIIGFTLQYELSYTNILTMLDLAGIPFRAAERGDEFPLVIAGGPCACNPEPLADFLDAVLLGDGEEAVVEIAAACLERKRNGESKQWLLERLASIDGVYVPSFFEPRYHDDGTIDAIIPLRPAHGRVRRRFLSDLDTAPYPTAPVVPFLKTIHDRVSIEIGRGCTRGCRFCQAGYLYRPVRERSPETILKLVEETLRNTGYDEVSLLSLSTGDYGCLTPLLRELMVRYAHERIAVALPSLRVGSLSQELVEEIRKVRKTGFTLAPEAGSERLRTIINKGISEEDLLRNAFEAFSNGWRVIKLYFMIGLPGETEEDLVGIADLARKVKQEGKRAGSGGEVNVSVSTFVPKPHTPFQWEPQITTEETVAKQRFLRDELKKRKLGLKWHDAPLSFMEGVFARGDRRLGAVLAKAWELGCRFDGWGDRLKSTTWHEAFAVCGIDPAFYHRRRGIDETLPWDHLDFGVTRAFLRQELEKAWAGEPTGDCRTGRCTGCGICDFDRIAMRTTDPAWQKGLEHHHHHH | not soluble
MARLIVNALVSVPLAEIEIGFVRSGGAGGQNVNKLATAAHLRFDIAASSLPETCKTRLLDHRDRRMTAEGIIVIKAQRFGTQEKNREDALARLRGLILQALAQRRPRKPTRPTLAAKKKRLDEKTRHGEIKRLRRRIGDLEHHHHHH | not soluble
MKLHEAKLLLNDPTFSIDSITYQELEMDSDYVDVHEDISYSKDNVDLHSHTFFEILFCQSGSLQYMVGNTRYQLVKNSIVCIPPGVSHCPLYLEQLSEPYRRTVMWISNKIYHQYMNLLNNDPIEKSSCLLPQNVFLLSGNILYQVEELYEKMLNIPPDFSGAELYKIGLSAQIVTLFHQFLNSHEINPLKPEKTILLDEIIHFIENHLSEELSAKRIAAHFLVSESSINQLFSKQISLSLYRYITQRRLIEAKNLISSQTPLKKLPELCGFSDYSVFYKAFTKQYGISPKEYKNRIFKMQQ | soluble
MGSDKIHHHHHHMKAVVQQWYTHPAVRAALTDLADYRPTLATAIEIQQVPAPTFAERPRSLLVSQRMQALGLHDVEVDDLGNVYGRRPGSTARPGLLISAHLDTVFPADTDLSIRYEGERVYGPGIGDNSAGVAGLLRLAEMYQRFDLPNTSDIWFVANVGEEGLGDLRGMRRVVERLRTRLSTVVVIEGCDFGSLHHQAIGVRRFRIEATGPGGHSWGNFGTPSAIHVLVRLAARLTELQVPSSPRTTFNIGTISGGTSVNTIAQHANMLLDLRSVSSAALTDLVNEVYRLVEEVALEYPDVHIQLTKVGDRPSGAIPREHPLVQAAVAAYQMVGAQISFQQSSTDANIPLSLGMPAVCVGLTDGGNAHRTDEYILPFNLSRGMQALLLLSLAANTLETI | not soluble
GMTGFVINTRRAPFDDWRLREALLLAFNFEFINDTVTGGVMPRITSYFSGTDLAYRPGTASGREAELLAPFAADLPPGTLEGYALPQGDGTARNRTNLRRAAQFLEQAGFRIEQGQLLGPDGAPLALRFLLRQGDSDMQTVLEIYTRALERLGIAAQIEKVDNAQYTARVAELDFDLTPFRRDLSLSPGNEQRLYWGSHSAGQPGTRNLMGAASPAIDAMIDRMLAATTEDELTAATRALDRVLTAGRYVIPIWRFD | not soluble
MPSPSPKGLPVKQYAVQSQLPVYEWPDVGSGEYDVGVVASFGRLLNEALILKFPYGILNVHPSCLPRWRGPAPVIHTVLHGDTVTGVTIMQIRPKRFDVGPILKQETVPVPPKSTAKELEAVLSRLGANMLISVLKNLPESLSNGRQQPMEGATYAPKISAGTSCIKWEEQTSEQIFRLYRAIGNIIPLQTLWMANTIKLLDLVEVNSSVLADPKLTGQALIPGSVIYHKQSQILLVYCKDGWIGVRSVMLKKSLTATDFYNGYLHPWYQKNSQAQPSQCRFQTLRLPTKKKQKKTVAMQQCIE | soluble
MVKGVETKTIVGLEVGTSKVVVVVGEVFPDGVVNVLGVGSCPSKGIDRGSITDLDAVVGSIQRAIEAAESMADCQIMSVTLAITGEHIQSLNESGFVPIAESEVTQEEIDSALHTASSIKLPEGL | not soluble
MTYTSLKSPENQDYIYDLTIAHLYGNLMNTYGDNGNILMLKYVAEKLGARVTVDIVSINDTFEQDDYDIVFFGGGQDYEQSIVAKDLPSKKAALADYIANNKVVLAICGGFQLLGQYYVQANGVKIDGLGIMGHYTLNQHQNRFIGDIKIHNDEFNETYYGFENHQGRTFLSGDEKPLGRVVYGNGNNKEDQTEGVHYKNVYGSYFHGPILSRNVNLAYRLVTTALKKKYGSAISLPSYDDILKQEITEEYADLKSKASFNKV | not soluble
MSLRDAKTWFTDTVLKDQNGRELRFYSDVLKDKVVMLNVIFTHCTDACPLITRKLREVREAMGPALAAQVTFVSISSDPLNDTPEALKAFAAKQGVDGPNWLFLTGDKANVDLVLGRIGQFLPSPEQHSTQLIAGDVAGKRWSKIRPDAPPAAIAQRMQLLTQPLAGREGHHHHHH | soluble
MGHHHHHHSHMEFVTNYTLEELKKRFTELGLEPYRAKQVFRWVYKKFVTDFEKMTDLGKKHRELLKEHFAFHPLEKLDRVEAPDAVKYLFKTKDGHILETVLIKERDHYTLCVSSQIGCAVGCTFCATALDGLKRNLSTAEIIDQYLQVQQDLGEEKIRNVVFMGMGEPLANYENVRKAVEIMVSPEGLDLSKRRITISTSGIVAQIKRMAQDPVMKEVNLAVSLNAVSQKKREELMPLTKTNTLEELMEVLKNYPLPKYRRITLEYVLIKGVNDSPNDAERLAKLIGRHKKKFKVNLIPFNPDPNLPYERPALTDIMKFQKVLWKYGISNFVRFSKGVEVFGACGQLRTQRLQLQRV | soluble
